Data: the supplement of paper PMC12458215
± gives the uncertainty stated by the source.

Tested on: HEK293T
Test: plasma membrane surface immunostaining intensity (anti-HA, deep receptor scanning) (arbitrary fluorescence units); higher = higher plasma membrane expression

Sequence | plasma membrane surface immunostaining intensity (GPCR class: A (Olfactory)) | plasma membrane surface immunostaining intensity (GPCR class: A) | also measured
MEPEINCSELCDSFPGQELDRRPLHDLCKTTITSSHHSSKTISSLSPVLLGIVWTFLSCGLLLILFFLAFTIHCRKNRIVKMSSPNLNIVTLLGSCLTYSSAYLFGIQDVLVGSSMETLIQTRLSMLCIGTSLVFGPILGKSWRLYKVFTQRVPDKRVIIKDLQLLGLVAALLMADVILLMTWVLTDPIQCLQILSVSMTVTGKDVSCTSTSTHFCASRYSDVWIALIWGCKGLLLLYGAYLAGLTGHVSSPPVNQSLTIMVGVNLLVLAAGLLFVVTRYLHSWPNLVFGLTSGGIFVCTTTINCFIFIPQLKQWKAFEEENQTIRRMAKYFSTPNKSFHTQYGEEENCHPRGEKSSMERLLTEKNAVIESLQEQVNNAKEKIVRLMSAECTYDLPEGAAPPASSPNKDVQAVASVHTLAAAQGPSGHLSDFQNDPGMAARDSQCTSGPSSYAQSLEGPGKDSSFSPGKEEKISDSKDFSDHLDSGCSQKPWTEQSLGPERGDQVPMNPSQSLLPERGGSDPQRQRHLENSEEPPERRSRVSSVIREKLQEVLQDLGLGPEASLSTAPSCHQQTWKNSAAFSPQKMPLSKELGFSPYMVRRRRAAQRARSHFPGSAPSSVGHRANRTVPGAHSRLHVQNGDSPSLAPQTTDSRVRRPSSRKPSLPSDPQDRPGTLEGSKQSQTEPEGARGSKAAFLRQPSGSGRAPSPAAPCLSKASPDLPEQWQLWPPVPSGCASLSSQHSYFDTESSSSDEFFCRCHRPYCEICFQSSSDSSDSGTSDTDPEPTGGLASWEKLWARSKPIVNFKDDLKPTLV [GPR156] | – | – | plasma membrane surface immunostaining intensity (GPCR class: C): 352 ± 30
MWQEYYFLNVFFPLLKVCCLTINSHVVILLPWECYHLIWKILPYIGTTVGSMEEYNTSSTDFTFMGLFNRKETSGLIFAIISIIFFTALMANGVMIFLIQTDLRLHTPMYFLLSHLSLIDMMYISTIVPKMLVNYLLDQRTISFVGCTAQHFLYLTLVGAEFFLLGLMAYDRYVAICNPLRYPVLMSRRVCWMIIAGSWFGGSLDGFLLTPITMSFPFCNSREINHFFCEAPAVLKLACADTALYETVMYVCCVLMLLIPFSVVLASYARILTTVQCMSSVEGRKKAFATCSSHMTVVSLFYGAAMYTYMLPHSYHKPAQDKVLSVFYTILTPMLNPLIYSLRNKDVTGALKRALGRFKGPQRVSGGVF [OR2T1] | 451 ± 170 | – | –
MEPEKQTEISEFFLQGLSEKPEHQTLLFTMFLSTYLVTIIGNALIILAIITDSHLHTPMYFFLFNLSLVDTLLSSTTVPKMLANIQAQSRAIPFVGCLTQMYAFHLFGTMDSFLLAVMAIDRFVAIVHPQRYLVLMCSPVCGLLLGASWMITNLQSLIHTCLMAQLTFCAGSEISHFFCDLMPLLKLSGSDTHTNELVIFAFGIVVGTSPFSCILLSYIRIFWTVFKIPSTRGKWKAFSTCGLHLTVVSLSYGTIFAVYLQPTSPSSSQKDKAAALMCGVFIPMLNPFIYSIRNKDMKAALGKLIGKVAVPCPRPEQLLDVYHVPGSLLAARDTEMHPIPYPGGVQSLAGNRDME [OR1I1] | 161 ± 47 | – | –
MKSDNHSFLGDSPKAFILLGVSDRPWLELPLFVVLLLSYVLAMLGNVAIILASRVDPQLHSPMYIFLSHLSFLDLCYTTTTVPQMLVNMGSSQKTISYGGCTVQYAVFHWLGCTECIVLAAMALDRYVAICKPLHYAVLMHRALCQQLVALAWLSGFGNSFVQVVLTVQLPFCGRQVLNNFFCEVPAVIKLSCADTAVNDTILAVLVAFFVLVPLALILLSYGFIARAVLRIQSSKGRHKAFGTCSSHLMIVSLFYLPAIYMYLQPPSSYSQEQGKFISLFYSIITPTLNPFTYTLRNKDMKGALRRLLARIWRLCG [OR2B11] | 238 ± 84 | – | –
MADAQNISLDSPGSVGAVAVPVVFALIFLLGTVGNGLVLAVLLQPGPSAWQEPGSTTDLFILNLAVADLCFILCCVPFQATIYTLDAWLFGALVCKAVHLLIYLTMYASSFTLAAVSVDRYLAVRHPLRSRALRTPRNARAAVGLVWLLAALFSAPYLSYYGTVRYGALELCVPAWEDARRRALDVATFAAGYLLPVAVVSLAYGRTLRFLWAAVGPAGAAAAEARRRATGRAGRAMLAVAALYALCWGPHHALILCFWYGRFAFSPATYACRLASHCLAYANSCLNPLVYALASRHFRARFRRLWPCGRRRRHRARRALRRVRPASSGPPGCPGDARPSGRLLAGGGQGPEPREGPVHGGEAARGPE [GALR3] | – | 2680 ± 290 | –
MNPTDIADTTLDESIYSNYYLYESIPKPCTKEGIKAFGELFLPPLYSLVFVFGLLGNSVVVLVLFKYKRLRSMTDVYLLNLAISDLLFVFSLPFWGYYAADQWVFGLGLCKMISWMYLVGFYSGIFFVMLMSIDRYLAIVHAVFSLRARTLTYGVITSLATWSVAVFASLPGFLFSTCYTERNHTYCKTKYSLNSTTWKVLSSLEINILGLVIPLGIMLFCYSMIIRTLQHCKNEKKNKAVKMIFAVVVLFLGFWTPYNIVLFLETLVELEVLQDCTFERYLDYAIQATETLAFVHCCLNPIIYFFLGEKFRKYILQLFKTCRGLFVLCQYCGLLQIYSADTPSSSYTQSTMDHDLHDAL [CCR4] | – | 186 ± 14 | –
MWNATPSEEPGFNLTLADLDWDASPGNDSLGDELLQLFPAPLLAGVTATCVALFVVGIAGNLLTMLVVSRFRELRTTTNLYLSSMAFSDLLIFLCMPLDLVRLWQYRPWNFGDLLCKLFQFVSESCTYATVLTITALSVERYFAICFPLRAKVVVTKGRVKLVIFVIWAVAFCSAGPIFVLVGVEHENGTDPWDTNECRPTEFAVRSGLLTVMVWVSSIFFFLPVFCLTVLYSLIGRKLWRRRRGDAVVGASLRDQNHKQTVKMLAVVVFAFILCWLPFHVGRYLFSKSFEPGSLEIAQISQYCNLVSFVLFYLSAAINPILYNIMSKKYRVAVFRLLGFEPFSQRKLSTLKDESSRAWTESSINT [GHSR] | – | 1480 ± 520 | –
